According to US20090018093:

Columns and labels:
[1] = tested on: Immunoglobulin E (IgE) (Homo sapiens), P01854-1; experiment: filter
[2] = biological target: T1, Immunoglobulin E (IgE) (Macaca fascicularis) (UniProt A0A7N9DC98); experiment: inhibition
T1 sequence: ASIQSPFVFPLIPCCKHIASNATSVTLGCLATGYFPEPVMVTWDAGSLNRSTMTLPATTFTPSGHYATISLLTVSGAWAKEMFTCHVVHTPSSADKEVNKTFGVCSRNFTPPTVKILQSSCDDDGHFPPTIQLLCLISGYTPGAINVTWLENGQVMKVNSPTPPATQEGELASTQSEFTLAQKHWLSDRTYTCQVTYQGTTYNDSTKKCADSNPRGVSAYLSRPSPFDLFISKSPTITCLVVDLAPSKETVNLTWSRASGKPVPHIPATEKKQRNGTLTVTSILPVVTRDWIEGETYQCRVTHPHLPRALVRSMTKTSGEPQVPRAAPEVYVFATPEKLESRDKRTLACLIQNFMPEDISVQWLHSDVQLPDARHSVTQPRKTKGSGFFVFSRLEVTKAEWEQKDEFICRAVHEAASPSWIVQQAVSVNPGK

[3] = tested on: Immunoglobulin E (IgE) (Homo sapiens), P01854-1; experiment: FP; details: 2'-F C and U; nitrocellulose dot blot filter, not fluorescence; biphasic, KD2 12.5 nM; 1xSHMCK + 0.1 mg/mL tRNA, RT
[4] = tested on: Immunoglobulin E (IgE) (Homo sapiens), P01854-1; experiment: inhibition
[5] = biological target: T2, Immunoglobulin E (IgE), cynomolgus (Macaca fascicularis) (UniProt A0A7N9DC98); experiment: inhibition; details: 2'-F C,U; no inhibition of monkey IgE-FceR1 up to 1 uM
T2 sequence: T1 sequence

[6] = 3' idT, no inhibition of monkey IgE:FceR1a-Fc up to 250 nM

Chain of Immunoglobulin E (IgE) (Homo sapiens), P01854-1 (P01854 other isoform, or with tags, fused parts or gaps): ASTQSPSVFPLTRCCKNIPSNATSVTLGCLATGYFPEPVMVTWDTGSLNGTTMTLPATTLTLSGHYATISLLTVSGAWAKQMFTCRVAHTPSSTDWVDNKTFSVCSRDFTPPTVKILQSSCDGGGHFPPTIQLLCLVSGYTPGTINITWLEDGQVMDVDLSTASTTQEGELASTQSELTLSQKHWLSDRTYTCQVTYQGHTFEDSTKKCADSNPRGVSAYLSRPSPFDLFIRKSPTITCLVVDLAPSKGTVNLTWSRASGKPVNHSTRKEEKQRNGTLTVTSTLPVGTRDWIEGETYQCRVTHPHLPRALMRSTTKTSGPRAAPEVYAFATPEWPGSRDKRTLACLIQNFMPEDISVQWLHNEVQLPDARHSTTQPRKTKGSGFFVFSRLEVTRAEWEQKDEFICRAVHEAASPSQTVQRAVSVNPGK

## AGCCUGGGGACCCAUGGGGGGCU [ARC445]
[1]; dRmY: 2'-deoxy A,G, 2'-OMe C,U, dPBS Ca/Mg + 0.1 mg/mL BSA, RT, 22 nM in PBS with tRNA + ssDNA (Table 10)
  Kd: 3 nM
[2]; dRmY: 2'-deoxy A,G, 2'-OMe C,U, ELISA, monkey IgE:FceR1a-Fc, human IC50 63 nM in same assay
  IC50: 161 nM

## GGGAAAAGCGAAUCAUACACAAGACGUCGCCAGAUUGAGUGUCGUGGUUCGGGUUGAGGCGGAAGCUCCGCCAGAGACCAACCGAGAA [rRfY clone SEQ 11]
[3]
  Kd: 0.144 nM
[4]; 2'-F C,U, ELISA FceR1-Fc, FACS 14 nM (Table 25)
  IC50: 2.6 nM

## GGGAAAAGCGAAUCAUACACAAGACGUCGCCAGAUUGAGUGUCGUGGUU [rRfY minimer SEQ 90]
[1]; 2'-F C and U, KD2 28.2 nM, 1xSHMCK + 0.1 mg/mL tRNA
  Kd: 0.33 nM
[5]
  IC50: > 1000 nM

## AGCCUGGGGACCCAUGGGGGGCU [ARC1666]
[1]; mAmGmCmCmUdGmGdG-s-dGmAmCmCmCmAmU-s-dI-s-mGdI-s-dGdI-s-dGmCmU-3T [2'-OMe 1-5,7,10-15,17,22,23, dI16,dI18,dI20 (inosine, parent base G), phosphorothioate 8/9,15/16,16/17,18/19,20/21 (N linkage letters left out), 3' inverted dT24], dPBS Ca/Mg + BSA, RT, 0.06 nM in Table 23
  Kd: 0.035 nM
[2]; mAmGmCmCmUdGmGdG-s-dGmAmCmCmCmAmU-s-dI-s-mGdI-s-dGdI-s-dGmCmU-3T [2'-OMe 1-5,7,10-15,17,22,23, dI16,dI18,dI20 (inosine, parent base G), phosphorothioate 8/9,15/16,16/17,18/19,20/21 (N linkage letters left out), 3' inverted dT24], ELISA, monkey IgE:FceR1a-Fc, human IC50 5 nM in same assay
  IC50: 8 nM

## GGAGAUCCGAGGGUGGGCAAUAGGCUCACAAGGGUUU [rRfY minimer SEQ 93]
[1]; 2'-F C and U, KD2 17.1 nM, 1xSHMCK + tRNA
  Kd: 0.65 nM
[4]; 2'-F C,U, FACS, 15 nM IgE
  IC50: 12.5 nM
[5]
  IC50: > 1000 nM

## AGCCUGGGGACCCAUGGGGGGCU [ARC1667]
[1]; 2'-OMe/2'-deoxy mix, dI18,dI20, PS as printed, 3' idT [18=dI, 20=dI (G parent), 24=3' inverted dT, phosphorothioate linkage N's left out], DPBS Mg/Ca, 0.1 mg/mL BSA, RT
  Kd: 0.4 nM
[4]; 2'-OMe/2'-deoxy mix, dI18,dI20, PS as printed, 3' idT [18=dI, 20=dI (G parent), 24=3' inverted dT, phosphorothioate linkage N's left out], FACS, 2.5 nM IgE
  IC50: 2.3 nM

## AGCCUGGGGACCCAUGGGGGGCU [ARC1728]
[1]; 2'-OMe/2'-deoxy mix, dI, PS, 3' idT [18=dI, 20=dI (G parent), 24=3' inverted dT, phosphorothioate linkage N's left out (5^6, 7^8, 8^9, 15^16, 17^18, 18^19, 19^20, 20^21)], DPBS Mg/Ca, 0.1 mg/mL BSA, RT
  Kd: 2.3 nM
[4]; 2'-OMe/2'-deoxy mix, dI, PS, 3' idT [18=dI, 20=dI (G parent), 24=3' inverted dT, phosphorothioate linkage N's left out (5^6, 7^8, 8^9, 15^16, 17^18, 18^19, 19^20, 20^21)], FACS, 2.5 nM IgE
  IC50: 13.2 nM

## GGGAAAAGCGAAUCAUACACAAGAUCCGAGGGUGGGCAAUAGGCUCACAAGGGUUUCGCGUGAUGCUCCGCCAGAGACCAACCGAGAA [rRfY clone SEQ 18]
[1]; 2'-F C and U, biphasic, KD2 27.3 nM, 1xSHMCK + tRNA, RT
  Kd: 1.14 nM
[4]; 2'-F C,U, ELISA FceR1-Fc, FACS 35 nM (Table 25)
  IC50: 51.3 nM

## GGCGGCAGCTTTATCCGTACCTCCCAGTGGGCTGCTCC [DNA clone SEQ 149 with 3' idT]
[2]; [6]
  IC50: > 250 nM

## AGCCUGGGGACCCAUGGGGGGCU [ARC1384]
[1]; as printed mAmGmCmCmUdGmG-s-dGmAmCmCmCmAmU-s-dG-s-mGdG-s-dGdG-s-dGmCmU-3T [2'-OMe: 1-5,7,10-15,17,22,23, deoxy: 6,8,9,16,18-21, phosphorothioate after 8,15,16,18,20, 24 = 3' inverted dT], dPBS Ca/Mg + BSA, RT
  Kd: 0.5 nM
[4]; 2'-OMe/2'-deoxy mix, PS, 3' idT [PS after 8,15,16,18,20, 2'-OMe/2'-deoxy mix, 3' idT left out], FACS, 2.5 nM IgE
  IC50: 4.4 nM

## GGAAUCAUACACAAGACGUCGCCAGAUUGAGUGUCGUGGUUCC [rRfY minimer SEQ 91]
[1]; 2'-F C and U, KD2 36.9 nM, 1xSHMCK + tRNA
  Kd: 0.56 nM
[4]; 2'-F C,U, FACS, 15 nM IgE
  IC50: 3.8 nM

## AGUUCUGGGGACCCAUGGGGGAACU [ARC443]
[1]; dRmY: 2'-deoxy A,G, 2'-OMe C,U, 1xPBS, BSA, tRNA, ssDNA, 25 C
  Kd: 55 nM
[4]; 2'-OMe C,U, deoxy A,G, FACS, 15 nM IgE
  IC50: 30.2 nM

## GGGGCTACTTTATCCGTCCCTCCTAGTGGGTAGCCCC [ARC475 with 3' idT]
[2]; [6]
  IC50: > 250 nM

## AGCCUGGGGACCCAUGGGGGGCU [ARC1641]
[1]; mAmGmCmCmUdGmGdG-s-dGmAmCmCmCmAmU-s-dG-s-mGdG-s-dGdI-s-dGmCmU-3T [2'-OMe 1-5,7,10-15,17,22,23, dI20 (inosine, parent base G), phosphorothioate 8/9,15/16,16/17,18/19,20/21 (N linkage letters left out), 3' inverted dT24], dPBS Ca/Mg + BSA, RT
  Kd: 0.4 nM
[4]; 2'-OMe/2'-deoxy mix, dI20, PS, 3' idT [dI at 20 (written as parent G), PS after 8,15,16,18,20, 2'-OMe/2'-deoxy mix, 3' idT left out], FACS, 2.5 nM IgE
  IC50: 1.8 nM

## GGGGCTACTTTATCCGTTCCTCTTAGTGGGTAGCCCC [ARC479]
[1]
  Kd: 0.4 nM
[4]; FACS, 15 nM IgE
  IC50: 14.4 nM

## AGCCUGGGGACCCAUGGGGGGCU [ARC1573]
[1]; as printed mAmGmCmCmU-s-dG-s-mG-s-dG-s-dGmAmCmCmCmAmU-s-dG-s-mG-s-dG-s-dG-s-dG-s-dG-s-mCmU-3T [2'-OMe: 1-5,7,10-15,17,22,23, deoxy: 6,8,9,16,18-21, phosphorothioate after 5-8,15-21, 24 = 3' inverted dT], dPBS Ca/Mg + BSA, RT
  Kd: 0.4 nM
[4]; 2'-OMe/2'-deoxy mix, PS, 3' idT [PS after 5,6,7,8,15,16,17,18,19,20,21, 2'-OMe/2'-deoxy mix, 3' idT left out], FACS, 2.5 nM IgE
  IC50: 69.4 nM

## GGAAAAGCGAAUCAUACACAAGAGUCGCGAUAGAUUGCUUGUGAAUGGUUUUGGUGGAAGCGGGCUCCGCCAGAGACCAACCGAGAA [rRfY clone SEQ 12]
[1]; 2'-F C and U, biphasic, KD2 9.85 nM, 1xSHMCK + 0.1 mg/mL tRNA, RT
  Kd: 0.057 nM
[4]; 2'-F C,U, ELISA FceR1-Fc, FACS 7.1 nM (Table 25)
  IC50: 5 nM

## AGCCUGGGGACCCAUGGGGGGCU [ARC1335]
[1]; 2'-OMe C,U,A1,G2,G7,A10,A14,G17, deoxy G6,G8,G9,G16,G18-G21, 3' idT [2'-OMe: 1-5,7,10-15,17,22,23, deoxy: 6,8,9,16,18-21, 24 = 3' inverted dT], dPBS Ca/Mg + BSA, RT
  Kd: 0.3 nM
[4]; 2'-OMe A1,G2,G7,A10,A14,G17 and all C,U, rest 2'-deoxy, 3' idT [2'-OMe at 1,2,3,4,5,7,10,11,12,13,14,15,17,22,23, 2'-deoxy at 6,8,9,16,18,19,20,21, 3' idT left out], FACS, 2.5 nM IgE
  IC50: 7.3 nM

## GGGAAAAGCGAAUCAUACACAAGAGUGCCGAGGCAUUGCUUGGUAUGGUUCCGGUCUUGUCGGGGCUCCGCCAGAGACCAACCGAGAA [rRfY clone SEQ 19]
[1]; 2'-F C and U, biphasic, KD2 17.4 nM, 1xSHMCK + tRNA, RT
  Kd: 0.095 nM
[4]; 2'-F C,U, ELISA FceR1-Fc, FACS 9.9 nM (Table 25)
  IC50: 7.4 nM

## AGCCUGGGGACCCAUGGGGGGCU [ARC1729]
[1]; 2'-OMe/2'-deoxy mix, dI16,dI18,dI20, PS as printed, 3' idT [16=dI, 18=dI, 20=dI (G parent), 24=3' inverted dT, 2'-OMe at 1-5,7,10-15,17,22,23, phosphorothioate linkage N's left out (5^6, 7^8, 8^9, 15^16, 17^18, 18^19, 19^20, 20^21)], DPBS Mg/Ca, 0.1 mg/mL BSA, RT
  Kd: 1 nM
[4]; 2'-OMe/2'-deoxy mix, dI16,dI18,dI20, PS as printed, 3' idT [16=dI, 18=dI, 20=dI (G parent), 24=3' inverted dT, 2'-OMe at 1-5,7,10-15,17,22,23, phosphorothioate linkage N's left out (5^6, 7^8, 8^9, 15^16, 17^18, 18^19, 19^20, 20^21)], FACS, 2.5 nM IgE
  IC50: 2.9 nM

## AGCCUGGGGACCCAUGGGGGGCU [ARC1383]
[1]; 2'-OMe/2'-deoxy mix, PS linkages as in Table 17, 3' idT [phosphorothioate linkages (internal N, left out) between 8-9, 15-16, 18-19, 20-21, 2'-OMe/2'-deoxy mix (positions not given), 3' inverted dT at 24], DPBS Mg/Ca, 0.1 mg/mL BSA, RT
  Kd: 1 nM
[4]; 2'-OMe/2'-deoxy mix, PS linkages as in Table 17, 3' idT [phosphorothioate linkages (internal N, left out) between 8-9, 15-16, 18-19, 20-21, 2'-OMe/2'-deoxy mix (positions not given), 3' inverted dT at 24], FACS, 2.5 nM IgE
  IC50: 7.5 nM

## AGCCUGGGGACCCAUGGGGGGCU [ARC1644]
[1]; 2'-OMe/2'-deoxy mix, dI16,dI20, PS, 3' idT [16=dI, 20=dI (G parent), 24=3' inverted dT, phosphorothioate linkage N's left out (5^6, 7^8, 8^9, 15^16, 17^18, 18^19, 19^20, 20^21)], DPBS Mg/Ca, 0.1 mg/mL BSA, RT
  Kd: 1.7 nM
[4]; 2'-OMe/2'-deoxy mix, dI16,dI20, PS, 3' idT [16=dI, 20=dI (G parent), 24=3' inverted dT, phosphorothioate linkage N's left out (5^6, 7^8, 8^9, 15^16, 17^18, 18^19, 19^20, 20^21)], FACS, 2.5 nM IgE
  IC50: 5.2 nM

## AGCCUGGGGACCCAUGGGGGGCU [ARC1643]
[1]; 2'-OMe/2'-deoxy mix, dI20, PS, 3' idT [20=dI (G parent), 24=3' inverted dT, phosphorothioate linkage N's left out (5^6, 7^8, 8^9, 15^16, 17^18, 18^19, 19^20, 20^21)], DPBS Mg/Ca, 0.1 mg/mL BSA, RT
  Kd: 1.1 nM
[4]; 2'-OMe/2'-deoxy mix, dI20, PS, 3' idT [20=dI (G parent), 24=3' inverted dT, phosphorothioate linkage N's left out (5^6, 7^8, 8^9, 15^16, 17^18, 18^19, 19^20, 20^21)], FACS, 2.5 nM IgE
  IC50: 8 nM
